Assay results taken from US20150104459A1.
“And” between values parts separate entries of the source, which are not always exact repeats. Equal values may be shown once.

B1: TCN-555 (5246_L16) (antibody, V domains shown)
VH: QVQLVQSGAEVKRPGSSVKVSCTASGGIFRKNAISWVRQAPGQGLEWMGGIIAVFNTANYAQKFQNRVKITADESGNTAYMELSSLTSDDTAVYYCASHPKYFYGSGSYPDFWGQGTLVTVSS
VL: QSALTQPRSVSGSPGQSITISCTGGSSDIGASNSVSWYQQHPGKAPKLVIFDVTERPSGVPHRFSGSKSGNTASLTVSGLQPDDEADYFCCAYGGKYLVVFGGGTKVTVL
B2: TCN-540 (5060_F05) (antibody, V domains shown)
VH: QVQLVQSGGGVVQPGRSLRLSCAASGFTFSSYAMHWVRQAPGKGLEWVAIISYDGNDQYYTDSVKGRFTISRDSSKVYLQMHRLRPEDTAVYYCAKEFETSGYFHGSFDYWGQGILVTVSS
VL: QSALTQPASVSGSPGQSITISCTGTSSDVGGYNYVSWYQQHPGKAPKLLIYEVTNWPSGVSNRFSGSKSGNTASLTISGLQAEDEADYYCSSYAGSSTWVFGGGTRVTVL
B3: TCN-523 (5248_A17) (antibody, V domains shown)
VH: QVQLVQSGAEVKKPGSSVKVSCKASGGSFSNYAFSWVRQAPGQGLEWMGGTIPLLGTTNYAQKFQGRVTISADQFTSTAYMELGSLRSEDTAVYYCTRRKMTTAFDSWGQGTLVTVSS
VL: QPVLTQPPSASASLGASVTLTCTLSSAYSNYKVDWYQQRPGKGPRFVMRVGTGGIVGSKGDGIPDRFSVLGSGLNRYLTIKNIQEEDESDYHCGADHGSGSNFVSPYVFGGGTKLTVL
B4: TCN-557 (5081_A04) (antibody, V domains shown)
VH: QVQLVQSGAEVKKPGASVKVSCKASGHTFTGYYIHWVRQAPGQGLEWMGWINPDSGATSSAQNFQGRVTMTGDTSSSTAYMELSRLSFDDTAVYYCARVLFTSPFDFWGEGTLVTVSS
VL: QAVVTQEPSLAVSPGGTVTLTCGSSTGAVTRGHYPYWFQQKPGQAPRALIYDSAGNRHSWTPARFSGSLLGGKAALTLSGAQPEDEAEYYCLLSYSGVWVFGGGTKLTVL
B5: TCN-535 (5246_P19) (antibody, V domains shown)
VH: QVQLVQSGSEVKKPGTSVKVSCTASGSVFTNYGISWVRQAPGQGLEWMGGIIPLFGAAKYAQKFQGRVTITADESTKTVYMELSRLTSKDTAIYFCAKAPRVYEYYFDQWGQGTPVTVSS
VL: EIVLTQSPGTLSLSPGERATLSCRASQSVSSSQLAWYQQKPGQAPRLIIYGASTRATGIPDRFSGSGSGTDFTLTIGRLEPEDFAVFFCQQYSTSPPTFGQGTKVDFK
B6: TCN-543 (5081_G23) (antibody, V domains shown)
VH: QVHLVQSGAEVRKPGDSVKVSCKTSGYTFSTYPVAWVRQVPGQGLEWMGWISTYNGNTNFAQNFQGRVTLTTDTTTNTAYMEVRSLKFDDTAVYYCARVEGSYRDFWNNQNRFDPWGQGTLVTVSS
VL: SYVLTQPPSVSVAPGQTARISCGGSNIGGKSVHWYQQKPGQAPVLVVYDDSGRPSGIPERFSGSNSGDTATLTISRVEAGDEADYFCQVWDNFGGVFGTGTKVTVL

molecular target: recombinant soluble homotrimeric HA of A/Anhui/1/05 (H5N1) (Influenza A virus A/Anhui/1/2005 (H5N1)); experiment: HA microarray, BCC supernatant; details: remark: other sources report otherwise

Binder	Trimeric HA Binding RLU
B1	1500 RLU
B2	25 RLU
B3	5700 RLU
B4	46000 RLU
B5	6880 RLU

molecular target: recombinant soluble homotrimeric HA of A/California/4/09 (H1N1) (Influenza A virus A/California/04/2009 (H1N1)); experiment: HA microarray, BCC supernatant; details: remark: other sources report otherwise

Binder	Trimeric HA Binding RLU
B1	44900 RLU
B2	57 RLU
B6	13100 RLU
B3	34700 RLU
B4	17600 RLU
B5	48600 RLU

molecular target: recombinant soluble homotrimeric HA of A/Egypt/3300-NAMRU3/08 (H5N1) (Influenza A virus A/Egypt/3300-NAMRU3/2008 (H5N1)); experiment: HA microarray, BCC supernatant; details: remark: other sources report otherwise

Binder	Trimeric HA Binding RLU
B1	42700 RLU
B2	1970 RLU
B3	36500 RLU
B5	39400 RLU

molecular target: recombinant soluble homotrimeric HA of A/Hong Kong/2108/03 (H9N2) (Influenza A virus A/Hong Kong/2108/2003 (H9N2)); experiment: HA microarray, BCC supernatant; details: remark: other sources report otherwise

Binder	Trimeric HA Binding RLU
B2	22 RLU
B4	35300 RLU

molecular target: recombinant soluble homotrimeric HA of A/Indonesia/5/05 (H5N1) (Influenza A virus A/Indonesia/5/2005 (H5N1)); experiment: HA microarray, BCC supernatant; details: remark: other sources report otherwise

Binder	Trimeric HA Binding RLU
B1	34500 RLU
B2	31 RLU
B3	45800 RLU
B4	45200 RLU
B5	45600 RLU

molecular target: recombinant soluble homotrimeric HA of A/Japan/305/57 (H2N2) (Influenza A virus A/Japan/305/1957 (H2N2)); experiment: HA microarray, BCC supernatant; details: remark: other sources report otherwise

Binder	Trimeric HA Binding RLU
B1	2130 RLU
B2	2970 RLU
B3	5110 RLU
B4	43400 RLU
B5	26100 RLU

molecular target: recombinant soluble homotrimeric HA of A/Netherlands/219/03 (H7N7) (Influenza A virus A/Netherlands/219/03 (H7N7)); experiment: HA microarray, BCC supernatant; details: remark: other sources report otherwise

Binder	Trimeric HA Binding RLU
B2	381 RLU
B6	661 RLU
B4	6780 RLU

molecular target: recombinant soluble homotrimeric HA of A/Solomon Islands/3/06 (H1N1) (Influenza A virus A/Solomon Islands/3/2006 (H1N1)); experiment: HA microarray, BCC supernatant; details: remark: other sources report otherwise

Binder	Trimeric HA Binding RLU
B1	26400 RLU
B2	64 RLU
B6	511 RLU
B3	37900 RLU
B4	40700 RLU
B5	39400 RLU

molecular target: recombinant soluble homotrimeric HA of A/Vietnam/1203/04 (H5N1) (Influenza A virus A/Vietnam/1203/2004 (H5N1)); experiment: HA microarray, BCC supernatant; details: remark: other sources report otherwise

Binder	Trimeric HA Binding RLU
B1	876 RLU
B3	3380 RLU
B4	47300 RLU
B5	4740 RLU

molecular target: recombinant soluble homotrimeric HA of A/Wisconsin/67/05 (H3N2) (Influenza A virus A/Wisconsin/67/2005 (H3N2)); experiment: HA microarray, BCC supernatant; details: remark: other sources report otherwise

Binder	Trimeric HA Binding RLU
B1	9800 RLU
B2	728 RLU
B6	1360 RLU
B4	10200 RLU
B5	34300 RLU

molecular target: recombinant soluble homotrimeric HA of A/chicken/Vietnam/NCVD-016/08 (H5N1) (Influenza A virus A/chicken/Vietnam/NCVD-016/2008 (H5N1)); experiment: HA microarray, BCC supernatant; details: remark: other sources report otherwise

Binder	Trimeric HA Binding RLU
B1	22300 RLU
B2	70 RLU
B3	48900 RLU
B4	45500 RLU
B5	50000 RLU

molecular target: recombinant soluble homotrimeric HA of A/duck/Yangzhou/02/2005 (H8N4) (Influenza A virus A/duck/Yangzhou/02/2005 (H8N4)); experiment: HA microarray, BCC supernatant; details: remark: other sources report otherwise

Binder	Trimeric HA Binding RLU
B1	18400 RLU
B2	117 RLU
B4	50100 RLU
B5	36600 RLU

molecular target: recombinant soluble homotrimeric HA of A/northern shoveler/California/HKWF115/2007 (H6N1) (Influenza A virus A/northern shoveler/California/HKWF115/2007 (H6N1)); experiment: HA microarray, BCC supernatant; details: remark: other sources report otherwise

Binder	Trimeric HA Binding RLU
B1	49500 RLU
B2	131 RLU
B3	46900 RLU
B4	24400 RLU
B5	48200 RLU

molecular target: recombinant soluble homotrimeric HA of A/swine/Ontario/01911-2/99 (H4N6) (Influenza A virus A/Swine/Ontario/01911-2/99 (H4N6)); experiment: HA microarray, BCC supernatant; details: remark: other sources report otherwise

Binder	Trimeric HA Binding RLU
B1	1950 RLU
B4	27000 RLU
B5	5950 RLU

molecular target: recombinant soluble homotrimeric HA, A/Anhui/1/05 (H5N1) (influenza A virus A/Anhui/1/2005 (H5N1)); experiment: microarray, trimeric HA, transfection supernatant; details: remark: other sources report otherwise

Binder	Trimeric HA Binding RLU
B2	2190 RLU
B4	20000 RLU

molecular target: recombinant soluble homotrimeric HA, A/Hong Kong/1073/99 (H9N2) (influenza A virus A/Hong Kong/1073/99 (H9N2)); experiment: microarray, trimeric HA, transfection supernatant; details: remark: other sources report otherwise

Binder	Trimeric HA Binding RLU
B3	24200 RLU and 24600 RLU
B5	21200 RLU

molecular target: recombinant soluble homotrimeric HA, A/Hong Kong/156/97 (H5N1) (influenza A virus A/Hong Kong/156/97 (H5N1)); experiment: microarray, trimeric HA, transfection supernatant; details: remark: other sources report otherwise

Binder	Trimeric HA Binding RLU
B1	36300 RLU
B2	1550 RLU
B6	1430 RLU
B3	28400 RLU
B4	27100 RLU

molecular target: recombinant soluble homotrimeric HA, A/Netherlands/219/03 (H7N7) (influenza A virus A/Netherlands/219/03 (H7N7)); experiment: microarray, trimeric HA, transfection supernatant; details: remark: other sources report otherwise

Binder	Trimeric HA Binding RLU
B2	4390 RLU
B6	12900 RLU
B4	53700 RLU

molecular target: recombinant soluble homotrimeric HA, A/chicken/Vietnam/NCVD-016/08 (H5N1) (influenza A virus A/chicken/Vietnam/NCVD-016/2008 (H5N1)); experiment: microarray, trimeric HA, transfection supernatant; details: remark: other sources report otherwise

Binder	Trimeric HA Binding RLU
B1	35200 RLU
B2	1510 RLU
B6	5880 RLU
B3	18900 RLU and 24000 RLU and 51300 RLU
B4	23300 RLU
B5	20900 RLU

molecular target: recombinant soluble homotrimeric HA, A/duck/Yangzhou/02/2005 (H8N4) (influenza A virus A/duck/Yangzhou/02/2005 (H8N4)); experiment: microarray, trimeric HA, transfection supernatant; details: remark: other sources report otherwise

Binder	Trimeric HA Binding RLU
B2	6080 RLU
B6	13100 RLU
B4	24000 RLU

molecular target: recombinant soluble homotrimeric HA, A/northern shoveler/California/HKWF115/2007 (H6N1) (influenza A virus A/northern shoveler/California/HKWF115/2007 (H6N1)); experiment: microarray, trimeric HA, transfection supernatant; details: remark: other sources report otherwise

Binder	Trimeric HA Binding RLU
B1	28700 RLU
B2	2460 RLU
B3	29400 RLU and 25100 RLU and 46900 RLU
B4	49600 RLU
B5	18100 RLU

molecular target: recombinant homotrimeric HA, A/swine/Ontario/01911-2/99 H4N6 (Influenza A virus A/swine/Ontario/01911-2/99 (H4N6)); experiment: trimeric HA microarray; transfection supernatant set 5; details: remark: other sources report otherwise

Binder	Trimeric HA Binding: RLU
B1	4520 RLU
